Assay: label from the status in PepcDB records

Sequence | protein production
MNIFKKIKNLSAEFKQNWFQYLILFTSISILNQFVFIPLFRYITTFVLQAGAIPFISYSNLVIILSEHPFVVFFLLIELALLLFVIYSQFALIILFIKNNFALKASISEFGQCLRHFRLGSLLLLAIYFLLVIPFANVVFRTPLLAKIKIPQFIIDYMTRSGILLAILIIFYLVIFVLAFRFLLTLPIMVIYKTTTREAMKKSAFLMKKNWRKVIGFFVPLGILAIVIMAINVGGAYLLQLIWDTFPGKFALIMATINLTLFQIISEVFLIWVSAVSLYFLVKLVTKNNNEIKEKVTNNKIILITIISIWSLAITGNIIENVFYLAGLDDHVPVTISHRGVNDKNGVQNTIESLKKTAKLKPDYVEIDVHETKDNQFVIMHDENLKKLTGKDKRPKELTLNQLTKLIAKEDGYKGKVVSLDQYMQAAQKLKQKLLIEIKTTPNDSNEFLVKFNKKYGHEILKNHYQLQSLDYRVVTKMQQLNPKIETLYIQPYNLIYPQSVADGYSMEYSTLSSDFIWQAHLQNHVVYAWTVNNKSEMKKMMYEHVDGIITDNISMLNTAIKEFQSRQSYANRILNYMMAFPILD | failed
MNIGVIILAAGEGKRFGGDKLLAKIDNTPIIMRTIRIYGDLEKIIIVGKYVNEMLPLLMDQIVIYNPFWNEGISTSLKLGLRFFKDYDAVLVALGDMPFVTKEDVNKIINTFKPNCKAVIPTHKGERGNPVLISKSLFNEIEKLRGDVGARVILNKIKIEELCFIECSEGVLIDIDKKEDLMRLRDFHP | failed
MNIILNGGPAELHGTTVADLIAQTAPQKPFAVAVNTVFVPKGAYAETVLNENDKIDIVRPVVGG | failed
MNILLAMIPAFFWGTTYAVTQFTLPDWPPVLLGALRALPAGLLLLAIKPSLPKKHEWKVLLVLGTINIAFFFGLIFVMALTLPSAISGVGMISVPVFAMLFGWAVYKRQPSAIQGISGAVLIALAWFLFDPSSISLNPIGLGAMLAAIMCIVIGSSVTKSLGTKMHWWTVLTWQLILGGVLLSIAAAVLATINPQPYVHAVQNIDMTNTLGLLWVIVLNTALGYGMYVWLLQRMSVVDFTFGGIANPIAGIVSGLLLLGENFTPLQYSLMVGMIVMSLLPQILTSLRARKEAITV | failed
MNILLLIGGLILILLGANGLTDGAASVAKRFRIPSIVIGLTIVAFGTSAPELTVSVASALKGSADIAIGNVVGSNIFNTLMIVGCTALFAPIIITRNTLRKEIPLCILSSVVLLICANDIFLDNATENILNRVDGLLLLCFFAIFMGYTFAIAFPKSSAAPEPAAPEHTAPEEEIKLLSWWKSILYIIGGLAALIYGGQLFVNGATGIARSMGVSESIIGLTLVAGGTSLPELATSIVAALKKNPEMAIGNVIGSNLFNIFFVLGCSASITPLHLSGITNFDLFTLVGSSILLWLFGLFFAKRTITRIEGSIMILCYVAYTVVLIYNS | failed
MNILLRLQLFFQITGHYASYFLAYIFETIFFLIFVFVSLIAMIYLFRKYMARLQLRYGPNRVGKFGSLQLIADAIKLVGKESILPKLRDDFAYKTAPYIVFIGLVVGFILIPYGDFYWIGSLTITHSDVSLILFFGAIAMMPIGEILAGISSHNKYALLGAMRGVAKDVSFEVPMMLSAIALVMMDSAVNKTPLEFSSLVSTQFIPFGILQPLGLFVFMVAMIARSSYTPFDLSESDSEIVSGYSTEYSGMRFGLFYMGMFGSIFLGSLVISLLYLGGYNGPYSSYAGFIYLLIKGLIMVLISFLIWLSMPRIRIDRFVNFGWKILLPIAIINLIWAGFLTLGVIS | failed
MNILSRIFARTPSLRTRVVVATAIGAAIPVLIVGTVVWVGITNDRKERLDRRLDEAAGFAIPFVPRGLDEIPRSPNDQDALITVRRGNVIKSNSDITLPKLQDDYADTYVRGVRYRVRTVEIPGPEPTSVAVGATYDATVAETNNLHRRVLLICTFAIGAAAVFAWLLAAFAVRPFKQLAEQTRSIDAGDEAPRVEVHGASEAIEIAEAMRGMLQRIWNEQNRTKEALASARDFAAVSSHELRTPLTAMRTNLEVLSTLDLPDDQRKEVLNDVIRTQSRIEATLSALERLAQGELSTSDDHVPVDITDLLDRAAHDAARIYPDLDVSLVPSPTCIIVGLPAGLRLAVDNAIANAVKHGGATLVQLSAVSSRAGVEIAIDDNGSGVPEGERQVVFERFSRGSTASHSGSGLGLALVAQQAQLHGGTASLENSPLGGARLVLRLPGPS | not failed
MNIQLNGQCRCIPETSSIAGLLAEEGFSERRVAVEVNGEIVPRTLHVNYVLREGDRVEIVHALGGG | failed
MNIQRETSGHIAAIVTILIWGTTFISTKVLLADFSPMEILFYRFLMGFIALILVRPNMIPFRNWRQELLFAGAGLFGVTLYFLLENIALTYTYASNVGMIVSIIPMITAVLAHFLLEGEKLRLTFLIGFISALIGLLLITFNGNVVLRLNPLGDIMAAGAALVFGGYSIFMKKLSAYEYHIIELTQRVFLYGLLFMVPALFLFDFHFDLSRFSSASNILNMLFLGIGASALCFATWNYSVGVLGAVKSSAYIYMVPVITIAASVLILHENMTWIALLGGALTLLGLYISELKPKAKLLENGCKMDA | failed
MNIRPAATLVLTRDTDNGIEVLLLQRTWEAVFLPGYYVFPGGAVNAQEPEGRAHVVGVEDADISQTMSLDEGGADYMLAAVRECFEEAGILLAQDASGQLIGADHGVHSERMALFQEEISLAQLCAKHGLTVPLDRLAYLSHWVTPPGPPRRFDTRFFVAVAPEGQVASHDGTETIDHVWIAPAQALEEHRAGARLLGLPTIRTLRVLSEFGTTGEMMRYAHANPPEAFPDQPWPAVRKGKPVMLEPNAPAYDEAVKLDPEGEGSTRAEIVPGEPVEVAAGVIRLTAPNPGMMTGPGTNTYILGHERFTVLDPGPANEAHIERILELTGGVVDQVVVTHTHMDHSPAVAQLKARTGCRVFGWPAPEGAGQDQGFTPDDQPGHEDLIVTEAGILKVLHTPGHASNHLCYLLLDQELLFSGDHIMQGSTVVINPPDGDMKAYIDSMYDLLAEPVRFIAPAHGFLMGQPAAVMDYLITHRLSREHKVWRALEALAPVSLKDLTARAYDDVPAAIHGLAARSALAHLLKLEAEHRAFADDGLWQVVAPD | failed
MNITVNDRECSAQVGDRLLDIARANHSHIGYFCGGNAICQTCYVRVLEGAELLSPMSDAEKAMLSDKLIKEGTRMACQTLIEKPGKITVLSEVEAAKRLTLENPLEHHHHHH | not failed
MNIVVQSVYDNTQEFEIIKKWRENYIGINPANGNDFEYWESIREDCSYSFYFYYEDQLVGGVRLTPLGHGITMGERQLDLLRFISVPLETLEVNRLVIEERARGKKIMYESLQYCFHWDSRNTTHSELIALCLPHMVPLYRQVGATMIHDNLQSKEMPEKEYSLISINLKGL | failed
MNIYDQLQAVEDRYEELGELLSDPDVVSDTKRFMELSREEANSRETVAVYREYKQVVQNIADAQEMIKDASGDPELEEMAKEELKNSKVAKEEYEEKLRFLLLPKDPNDDKNIILEIRGAAGGDEAALFAGDLLNMYQKYAENQGWKFEVMEASANGVGGLKEVVAMVSGQSVYSKLKYESGAHRVQRVPVTESQGRVHTSTATVLVMPEVEEVEYEIDPKDLRVDIYHASGAGGQNVNKVATAVRIIHLPTNIKVEMQEERTQQKNRDKAMKIIRARVADHFAQIAQDEQDAERKSTVGTGDRSERIRTYNFPQNRVTDHRIGLTLQKLDSILSGKLDEVIDALILYDQTQKLEELNK | not failed
MNKEVDLSVSCLGKVKELKYDVIILPWGATEPHNLHLPYLTDCILPHDIAVEAAELALSRSGVRCMVMPPVPFGAHNPGQRELPFCIHTRYATQQAILEDIVSSLHVQGFRKLLILSGHGGNNFKGMIRDLAFEYPDFLIAAANWFEVVSPKGYFEAEIDDHAGESETSVMMHYHPELVNLAEAGDGESKPFAIASLNEKVAWVPRHWDKATVDSGVGNPKKATAEKGERYVKPIVEKLAGLFEEMAQHDLYE | not failed
MNKGNTLDSIPTDLILEIFSRLSAKSVGRLRCLSKLWRKGEWFFFSSLQPQNLYEKPFLVVAADFHMKFSEDMSHDIYSYASGLIYFPKMLIENEKSGAIRVICNPITGQYAILPKLITLQAARSFLGFDPIDNQFKVLLVNNDIVNNDMDILTLGIGELMSEKLKFIEAKCFFALDDVQLINYKGKLGGISWNNHEVAPVELSMWVLEDVEKQEWSKNVYILPKNVVPNNWLHAAGVTVEGDIVFSEAVVSNPFDVFYFNPEKNTLQHVETHCNHEVFDDENLVNIFVDHVEDLKFDVMKPTYAATSIRPTEQKHKPTSTETSMSRKDHQVRTIDQPQQDRCTFESINNKFDVMCLLDDD | not failed
MNKKSLLAAVLFAAVMPVSFAQNANVKGAESLSGGSKPNFPEARTLIGEAMKNPETMNDAKTWFVAGQVEERLFTSENLKQTVNQEPDRAMMNDALLRILPFYLKADQLDNMPDQKGKVKPKFTKKIMESLKGNHLYYINAGGYYMEKKDYKKALEAFDQFMQIKELPMFAAVPEISAQDSNSMMVGFFSAVCAYQANDLDRTLEICNKIKDVPYRQNDVYQLIATVYQDKKDTEGYIRMLEEGVQKFPKEAYYLLNLINKYIETGRTEEAISSLERAIADDPQNVQLYDVMAKLYENTQDYDKAEEWLKKGLALDPDNASVCYDLGRVYYNRAADLKGADQVNAETEAKAKEYLQKALPLLEKAYSINPDESWYVLRNVYYNLKMNDKYKELTERHEGK | failed
MNKLEERSQHRKSRFRFLVISTFWRVLLLLKNDAEPLFHLGNIHYAYGHKASAMNYWKEAVSKNREHEKAWHNLVQCAVIQEEWEQAAEGLTILCRNHPTRFEYMSLYTHALKKLGKKEELEEWYLSHINGPHHEWAIEGLGMLYIRTRREIDAFKLLSPFVRKFPNRPVGLKILGISSIRTNQYEAGLTFLEKSLELKEDKEVKSLVDRVKRLKKVRGGNR | failed
MNKLSEKNTTRLASLDILRGFDLFLLVFFQPVFAALVRQLNLPFLNDILYQFDHEVWEGFRFWDLVMPLFLFMTGASMPFSLSKYVGMSGSYWLVYRRILRRVFLLFIFGMIVQGNLLGLDSSHIYLYSNTLQSIAVGYLIAAVIQLHFSFRWQIGITLLLLFIYWIPMTFLGDFTPAGNFAEQVDRCVLGRFRDGVFWNEDGTWSFSPYYNYTWIWSSLTFGVTVMLGAFAGKIMKEGKANRKKVVQTLSVIGVLLVGLAMLWSLQMPIIKRLWTGSMTLLSGGYCFLLMALFYYWIDYKGHSRGLNWLKVYGMNSITAYLLGEVVNFRCIADSVSYGLKQYIGDYYPVWLTFANYLILFFLLRMMYKRGLFLKV | failed
MNKLSIIITYFNNEDYISECIHSLKSQRNQDFDIIVVDDGSTDRSTEILQEALKSYDKDVHFIQLQENTGHAHARNVALEQAHGQYVLFLDADDQLASYAVDYYLQHVNGLDTLIAPIHKFRSQRPQYVDKDKVRLQYASHQKSPNAILRKESACNILFKNAIIKAHQIQFNESLDIYADTSFVLEYLKYAERFVRITNFPFYYRGEVYDPFYGNTLSDQDFTNKFEDHVNSFFDAMQRTNDKRIKNFLIQRMKNEIKSGFDPALRDIKSRYVSLEDALIKIVKALKWNILKDGKVLYNLEILFLSMDDVENAKYVNDLRNKTRLVKNIVLNSKMKERSKYQLSDNEDLVDPNTIVFEAFGGKNYSDSPKYIYEYMQKHYPHLNYIWVFSKPENNNIPGNATKVKKGSQAYYDAYAKAKYWVTNARLPLYLNKKENQMYIQTWHGTPLKRLANDMKVVRMPGTTTANYKKNFYAEASRWDRLVSPNRYSSDIFKSAFWMDEDRIWEIGYPRNDVLVNRQNDTEYIEQIKRDLNLPADKKVIMYAPTWRDDEFVKKGQYLFDLKINLANLQKEIGDEYVILLRMHYLIANALDLHGYDDFAIDVSNYNDISELYLISDALVTDYSSVMFDFGILKRPQFFFAYDIEKYDKGLRGFYMDYMNDLPGEIITDEFKLAEELKQIDQHKVKYQDKIESFYNDFCSIENGKASQYIGDYIYKDIEKKS | failed

— a protein production outcome set (Wang et al. 2014)
